Reference: patent publication US20220112288A1 (published 2022)
Where a chain is given by its changes, count along the chain named. Blank lines part the entries; values can stand above or below the binder they belong to.

How the values were obtained:
[1] = target: T1, huCD4-HIS (human, UniProt P01730 26-390, limits assumed); experiment: ELISA binning; competitor ibalizumab; 100 ng/mL huCD4-HIS, anti-HIS HRP; background 45, max binding 3000000
T1 construct: the ELISA is not described in the text of this stretch; also called human CD4-HIS

[2] = target: T2, human CD4 on cells (SKW3 cells; human PBMCs) (human, UniProt P01730 26-458); experiment: FACS confirmation, supernatant on human PBMCs;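 further: flow cytometry with hybridoma supernatants incubated on human PBMCs for 30 min at 4 °C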
T2 construct: whole, on cells; SKW3 CD4 knockout cells served as the negative cell line in the primary screen; also called hCD4; huCD4

[3] = target: T2, human CD4 on cells (SKW3 cells; human …); experiment: FACS binning on SKW3 cells; competitor OKT4a; background 5000, max binding 35000
[4] = target: T2, human CD4 on cells (SKW3 cells; human …); experiment: FACS primary screen, hybridoma supernatant, SKW3 vs SKW3 CD4 KO cells;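 further: flow cytometry on mixed SKW3 and dye-labeled SKW3 CD4 knockout cells after 30 min at 4 °C with supernatant, ratio of binding signal on parental versus knockout cells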
[5] = target: T2, human CD4 on cells (SKW3 cells; human …); experiment: FACS binning on SKW3 cells; competitor OKT4-A488; background 2163, max binding 8200
[6] = target: T2, human CD4 on cells (SKW3 cells; human …); experiment: FACS confirmation, supernatant on SKW3 cells; background gMFI 2500
[7] = target: T2, human CD4 on cells (SKW3 cells; human …); experiment: FACS confirmation, supernatant on SKW3 cells; background gMFI 3300
[8] = target: T2, human CD4 on cells (SKW3 cells; human …); experiment: FACS binning on SKW3 cells; competitor RPA-T4-PE-Dazzle 594; background 783, max binding 15000

B1: 75110_02N15A (antibody, V domains shown)
VH: EVQLVESGGGLVQPGGSLRLSCAASGFTFSSYWMSWVRQAPGKGLEWVANINEDGNEKYYVDSVKGRFTISRDNAKNSLFLQMNSLRAEDTAVYFCAREGGQWLALDHWGQGALVTVSS
VL: DIQMTQSPSSVSASVGDRVTITCRASQGISSWLAWYQQKPGKAPKFLISGASSLQSGVPSRFSGSGSGTDFTLTISSLQPEDFATYYCQQANSFPWTFGQGTKVEFK
notes: Tested as non-clonal AlivaMab Mouse Kappa hybridoma supernatant (detected with anti-mouse Fc gamma and anti-human kappa)
Ibalizumab ELISA binning signal [1]: 1.98e+06 | PBMCs CD4+ gate RL1 binding, anti-mFc 647 [2]: 250000 | PBMCs CD4+ percent bound of viable [2]: 27% | OKT4a signal (anti-hu A647) with supernatant [3]: 42900 | SKW3 WT vs KO ratio, anti-hKappa-FITC [4]: 2.1 | SKW3 WT vs KO ratio, anti-mFc-647 [4]: 4.9 | OKT4-A488 signal with supernatant [5]: 3020 | gMFI on SKW3 WT, anti-hu Kappa FITC [6]: 5000 gMFI | gMFI on SKW3 WT, anti-mFc 647 [7]: 15900 gMFI | RPA-T4-PE-Dazzle 594 signal with supernatant [8]: 14200

B3: 75110_06K03A (antibody, V domains shown)
VH: QVQLQESGPGLVKPSETLSLTCTVSGGSISTYYWSWIRQPAGKGLEWIGRINTSGSTTYNPSLKSRVTMSVDTSKNQFSLKLSSVTAADTAVYYCARELERYYYYGMDVWGQGTTVTVSS
VL: DIQMTQSPSSLSASVGDRVTITCQASQDISNYLNWYQQKPGKAPKLLIYYASILETGVPSRFSGSGSGTDFTFTISSLQPEDIATYYCQQYDSLPLTFGGGTKVEIK
notes: as for B1
Ibalizumab ELISA binning signal [1]: 1.65e+06 | PBMCs CD4+ gate RL1 binding, anti-mFc 647 [2]: 296000 | PBMCs CD4+ percent bound of viable [2]: 32% | OKT4a signal (anti-hu A647) with supernatant [3]: 33200 | SKW3 WT vs KO ratio, anti-hKappa-FITC [4]: 2.7 | SKW3 WT vs KO ratio, anti-mFc-647 [4]: 7.5 | OKT4-A488 signal with supernatant [5]: 9140 | gMFI on SKW3 WT, anti-hu Kappa FITC [6]: 8640 gMFI | gMFI on SKW3 WT, anti-mFc 647 [7]: 33600 gMFI | RPA-T4-PE-Dazzle 594 signal with supernatant [8]: 15800

B4: 75110_08F20A (antibody, V domains shown)
VH: QVQLQESGPGLVKPSETLSLTCSVSGGSISTYYWSWIRQPAGKGLEWIGRICTTENTNYNPSLKSRVTMSIDSSKNQFSLKLSSVTAADTAVYYCARDLERLNYYGMDVWGQGATVTVSS
VL: B3 VL with N31K, K42I, Y50D, I53N, I83F, L96I, G100Q, K103R, V104L
notes: as for B1
Ibalizumab ELISA binning signal [1]: 1.41e+06 | PBMCs CD4+ gate RL1 binding, anti-mFc 647 [2]: 253000 | PBMCs CD4+ percent bound of viable [2]: 32% | OKT4a signal (anti-hu A647) with supernatant [3]: 44800 | SKW3 WT vs KO ratio, anti-hKappa-FITC [4]: 1.7 | SKW3 WT vs KO ratio, anti-mFc-647 [4]: 3.1 | OKT4-A488 signal with supernatant [5]: 7410 | gMFI on SKW3 WT, anti-hu Kappa FITC [6]: 6170 gMFI | gMFI on SKW3 WT, anti-mFc 647 [7]: 31500 gMFI | RPA-T4-PE-Dazzle 594 signal with supernatant [8]: 15500

Now from value to binder, other results behind:

Ibalizumab ELISA binning signal [1]: 1.98e+06 | PBMCs CD4+ gate RL1 binding, anti-mFc 647 [2]: 89200 | OKT4a signal (anti-hu A647) with supernatant [3]: 38000 | SKW3 WT vs KO ratio, anti-hKappa-FITC [4]: 1.3 | SKW3 WT vs KO ratio, anti-mFc-647 [4]: 2.3 | OKT4-A488 signal with supernatant [5]: 8050 | gMFI on SKW3 WT, anti-hu Kappa FITC [6]: 3980 gMFI | gMFI on SKW3 WT, anti-mFc 647 [7]: 13400 gMFI | RPA-T4-PE-Dazzle 594 signal with supernatant [8]: 15900
B2: 75110_07J02A (antibody, V domains shown)
VH: EVQLVESGGGLVQPGGSLRLSCAASGFTFSSYWMSWVRQAPGKGLEWVANIKEDGSEKYYVDSVKGRFTISRDNAKNSLYLQMNSLRAEDTAVYYCARDGSYSGYGMDVWGQGTTVTVSS
VL: AIQMTQSPSSLSASVGDRVTITCRASQGIRNDLGWYQQKPGKAPKLLIYAASSLQSGVPSRFSGRGSGTDFALTISSLQPEDFATYYCLLDYNYPYTFGQGTRLEIK
notes: as for B1
PBMCs CD4+ percent bound of viable [2]: 27%

Ibalizumab ELISA binning signal [1]: 1.28e+06 | PBMCs CD4+ gate RL1 binding, anti-mFc 647 [2]: 277000 | OKT4a signal (anti-hu A647) with supernatant [3]: 29700 | SKW3 WT vs KO ratio, anti-hKappa-FITC [4]: 3.8 | SKW3 WT vs KO ratio, anti-mFc-647 [4]: 14.9 | OKT4-A488 signal with supernatant [5]: 9080 | gMFI on SKW3 WT, anti-hu Kappa FITC [6]: 7640 gMFI | gMFI on SKW3 WT, anti-mFc 647 [7]: 28600 gMFI | RPA-T4-PE-Dazzle 594 signal with supernatant [8]: 16600
B5: 75110_14N19A (antibody, V domains shown)
VH: B4 VH with S23T, T31R, T54S, T57P, S62A, I71V, S73T, D98E, A114T
VL: DIQMTQFPSSLSASVGDRVTITCQASQDISNYLNWYQQKPGKAPKLLIYDASNLESGVPSRFSGRGSGTDFTFTISSLQPEDFATFYCQQYDTLPITFGQGTRLEIK
notes: as for B1
PBMCs CD4+ percent bound of viable [2]: 29%

Ibalizumab ELISA binning signal [1]: 1.69e+06 | PBMCs CD4+ gate RL1 binding, anti-mFc 647 [2]: 314000 | OKT4a signal (anti-hu A647) with supernatant [3]: 38400 | SKW3 WT vs KO ratio, anti-hKappa-FITC [4]: 2.4 | SKW3 WT vs KO ratio, anti-mFc-647 [4]: 5.7 | OKT4-A488 signal with supernatant [5]: 8890 | gMFI on SKW3 WT, anti-hu Kappa FITC [6]: 5840 gMFI | gMFI on SKW3 WT, anti-mFc 647 [7]: 19400 gMFI | RPA-T4-PE-Dazzle 594 signal with supernatant [8]: 16200
B6: 75110_08G08A (antibody, V domains shown)
VH: B4 VH
VL: B5 VL with F7S, K42I, S56T, R65S, F83I, F86Y, T93S
notes: as for B1
PBMCs CD4+ percent bound of viable [2]: 30%
